Target: fluorescein labeled SecYEG reconstituted in proteoliposomes (E. coli) (UniProt P0AGA2)
Assay: FRET or BRET; DCFBA-FRET on single proteoliposomes; SecYEG-FM (donor, 488 nm excitation) in PLs, proOmpA(C282)-DhfR-Atto647N (acceptor) in complex with SecB, SecA, NADPH and methotrexate, with or without ATP; in hydrogel of gelator 1 and in suspension; stalled translocation intermediate

UniProt P0AGA2, sequence (P0AGA2 whole entry, chain 1 of 3): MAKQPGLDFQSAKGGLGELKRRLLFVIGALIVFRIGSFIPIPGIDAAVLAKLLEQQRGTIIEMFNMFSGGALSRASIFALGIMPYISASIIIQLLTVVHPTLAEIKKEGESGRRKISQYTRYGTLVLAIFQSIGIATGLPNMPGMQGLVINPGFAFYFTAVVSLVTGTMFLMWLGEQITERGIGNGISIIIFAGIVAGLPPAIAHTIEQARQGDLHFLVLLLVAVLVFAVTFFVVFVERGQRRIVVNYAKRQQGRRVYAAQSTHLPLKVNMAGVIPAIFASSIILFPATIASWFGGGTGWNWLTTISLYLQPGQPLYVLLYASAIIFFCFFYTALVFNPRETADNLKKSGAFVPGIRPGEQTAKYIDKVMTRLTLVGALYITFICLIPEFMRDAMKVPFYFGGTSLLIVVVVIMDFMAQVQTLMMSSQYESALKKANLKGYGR
UniProt P0AGA2, sequence (P0AG96 whole entry, chain 2 of 3, further chain): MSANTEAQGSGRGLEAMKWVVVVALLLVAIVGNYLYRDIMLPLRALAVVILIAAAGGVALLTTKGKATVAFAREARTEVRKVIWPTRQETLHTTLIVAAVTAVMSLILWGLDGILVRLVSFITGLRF
UniProt P0AGA2, sequence (P0AG99 whole entry, chain 3 of 3, further chain): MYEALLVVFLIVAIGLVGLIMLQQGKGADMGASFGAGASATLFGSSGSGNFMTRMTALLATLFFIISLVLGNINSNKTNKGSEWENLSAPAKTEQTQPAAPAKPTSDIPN

“fusion protein proOmpA(C282)-DhfR-Atto647N” was tested, and the average FRET efficiency per liposome in the hydrogel compared to suspension was 50%.
